How the values were obtained:
[1] = target: T1, monovalent hVISTA-ECD (amino acids 32-193 of SEQ ID NO: 1 with a 7xHis tail) (human, UniProt Q9H7M9 33-193); assay: SPR 37C, pH 7.4 over pH 6.0
T1 construct: analyte of the SPR assays; also called huVISTA-His; human VISTA-ECD
Method: (§1) For this assay, ‘029, ‘761 and ‘767were reformatted as hIgG1f isotype and were expressed as both standard hIgG1f and in hIgG1f afucosylated formats to compare against the hIgG1.3f Fc. An SPR kinetics assay was conducted to measure koff and KD binding affinity measurements for VISTA Abs at acidic and physiological pH using a Biacore® T100 instrument (GE Healthcare). […] Antibodies were diluted to 25 nM in PBST pH 7.4, and were captured across active biosensor flow cells at 5 ul/min for 45 seconds. A concentration series of 1600 - 0.78 nM (pH 7.4) and 100 - 0.78 nM (pH 6.0) monovalent hVISTA-ECD (SEQ ID NO: 325) was prepared running buffer, and was injected over the captured antibodies at 40 ul/min to measure association and dissociation. Two 15 second injections of 10 mM glycine pH 1.5 were used to regenerate the Protein A capture surface between assay cycles. Rate constants ka (kₒₙ) and kd (koff) were derived from reference flow cell and 0 nM blank-subtracted sensorgrams, and were fit to a 1:1 binding model in Biacore® T200 Evaluation Software v.2.0. The affinity constant, KD was calculated as the ratio of rate constants koff/kₒₙ for each VISTA antibody. Ratios of koff and KD at pH 7.4 / pH 6.0 were calculated to compare off-rate and affinity improvement at acidic pH relative to physiological pH.

[2] = target: T1, monovalent hVISTA-ECD (amino acids …); assay: SPR 37C, pH 6.0 over pH 6.0
[3] = target: T1, monovalent hVISTA-ECD (amino acids …); assay: SPR 37C, pH 6.9 over pH 6.0
Method: (§2) Human VISTA binding kinetics of P1-061029 (“ ‘029”), P1-068761 (“ ‘761”) and P1-068767 (“ ‘767”) (as IgG1.3 antibodies) were measured at pH values between pH 7.4 and pH 6.0, i.e., at pH 6.9 and pH 6.45 using a Biacore® T100 instrument (GE Healthcare). […] Antibodies were diluted to 25 nM in PBST pH 7.4, and were captured across active biosensor flow cells at 5 ul/min for 45 seconds. A concentration series of 100 - 0.78 nM monovalent hVISTA-ECD (SEQ ID NO: 325) was prepared pH 7.4, 6.9, 6.45 and 6.0 running buffers, and was injected over the captured antibodies at 40 ul/min to measure association and dissociation. Two 15 second injections of 10 mM glycine pH 1.5 were used to regenerate the Protein A capture surface between assay cycles. Rate constants ka (kₒₙ) and kd (koff) were derived from reference flow cell and 0 nM blank-subtracted sensorgrams, and were fit to a 1:1 binding model in Biacore® T200 Evaluation Software v.2.0. The affinity constant, KD was calculated as the ratio of rate constants koff/kₒₙ for each VISTA antibody. Ratios of koff and KD at each pH relative to pH 6.0 were calculated to evaluate how the VISTA koff and KD change as the buffer pH shifts to physiological, and are shown in Table 7. […] As the buffer pH shifts from acidic to physiological, VISTA koff and KD both weaken for ‘761 and ‘767. Physiological pH data for ‘761 and ‘767 for comparison is referenced from Table 7 and noted with an asterisk (*).

[4] = target: T1, monovalent hVISTA-ECD (amino acids …); assay: SPR 37C, pH 6.45 over pH 6.0
Method: as §2

[5] = target: T1, monovalent hVISTA-ECD (amino acids …); assay: SPR 37C, Ab on Protein A, hVISTA-ECD 100-0.78 nM, pH 6.9
Method: as §2

[6] = target: T1, monovalent hVISTA-ECD (amino acids …); assay: SPR 37C, Ab on Protein A, hVISTA-ECD 1600-0.78 nM, pH 7.4
Method: as §1

[7] = target: T1, monovalent hVISTA-ECD (amino acids …); assay: SPR 37C, Ab on Protein A, hVISTA-ECD 100-0.78 nM, pH 6.45
Method: as §2

[8] = target: T1, monovalent hVISTA-ECD (amino acids …); assay: SPR 37C, Ab on Protein A, hVISTA-ECD 50-5 nM, pH 6.0, average
How it was run: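 Biacore T100 at 37C: antibodies (IgG1.3 format, 25 nM in PBST pH 7.4) captured on Protein A, then 50 - 5 nM monovalent hVISTA-ECD injected in pH 7.4 or 6.0 running buffer. Reference- and blank-subtracted sensorgrams fit to 1:1 model; KD = koff/kon.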

T1 sequence (Q9H7M9 other isoform, or with tags, fused parts or gaps limits assumed): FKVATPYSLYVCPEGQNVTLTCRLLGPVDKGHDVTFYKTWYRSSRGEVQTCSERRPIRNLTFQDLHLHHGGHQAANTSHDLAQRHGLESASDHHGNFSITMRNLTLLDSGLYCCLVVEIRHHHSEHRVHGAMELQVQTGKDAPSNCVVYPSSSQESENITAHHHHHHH

KD ratio (7.4/6) [1] | kd ratio (7.4/6) [1] | KD ratio to pH 6.0 [2] | koff ratio to pH 6.0 [2] | KD ratio to pH 6.0 [3] | koff ratio to pH 6.0 [3] | KD ratio to pH 6.0 [4] | koff ratio to pH 6.0 [4] | Kd [5] [nM] | koff [5] [s⁻¹] | kon [5] [M⁻¹ s⁻¹] | Kd [6] [nM] | koff [6] [s⁻¹] | kon [6] [M⁻¹ s⁻¹] | Kd [7] [nM] | koff [7] [s⁻¹] | kon [7] [M⁻¹ s⁻¹] | Kd [8] [nM] | koff [8] [s⁻¹] | kon [8] [M⁻¹ s⁻¹] | Binder
5.8 | 0.9 | 1 | 1 | 7.1 | 1 | 2.7 | 0.7 | 14 | 0.0057 | 410000 | 42 | 0.0068 | 160000 | 5.3 | 0.004 | 740000 | 3.6 | 0.0058 | 1.6e+06 | P1-061029.IgG1.3 (antibody, IgG1.3; also called P1-061029 (parent); P1-061029-18) heavy: EVQLVESGGGLVQPGKSLRLSCAASGFTLDDYAMHWVRQAPGKGLEWVSGINWNSANIGYADSVKGRFTISRDNAKNSLYLQMNSLRTEDTALYYCAKVPGYSGGWIDAFDVWGQGTMVTVSSASTKGPSVFPLAPSSKSTSGGTAALGCLVKDYFPEPVTVSWNSGALTSGVHTFPAVLQSSGLYSLSSVVTVPSSSLGTQTYICNVNHKPSNTKVDKRVEPKSCDKTHTCPPCPAPEAEGAPSVFLFPPKPKDTLMISRTPEVTCVVVDVSHEDPEVKFNWYVDGVEVHNAKTKPREEQYNSTYRVVSVLTVLHQDWLNGKEYKCKVSNKALPAPIEKTISKAKGQPREPQVYTLPPSREEMTKNQVSLTCLVKGFYPSDIAVEWESNGQPENNYKTTPPVLDSDGSFFLYSKLTVDKSRWQQGNVFSCSVMHEALHNHYTQKSLSLSPG light: not shown
2560 | 26.3 | 1 | 1 | 170 | 13.4 | 18.4 | 3.2 | 190 | 0.0089 | 48000 | 11000 | 0.042 | 3800 | 20 | 0.0021 | 110000 | 3.8 | 0.0014 | 380000 | P1-068761.IgG1.3 (antibody, IgG1.3; also called P1-068761-20; P1-068761 hIgG1.3f) heavy: EVQLVESGGGLVQPGKSLRLSCAASGFTLEDEAMHWVRQAPGKGLEWVSGINWNSEEIGYADSVKGRFTISRDNAKNSLYLQMNSLRTEDTALYYCAKVPGYSHGWIDAEDVWGQGTMVTVSSASTKGPSVFPLAPSSKSTSGGTAALGCLVKDYFPEPVTVSWNSGALTSGVHTFPAVLQSSGLYSLSSVVTVPSSSLGTQTYICNVNHKPSNTKVDKRVEPKSCDKTHTCPPCPAPEAEGAPSVFLFPPKPKDTLMISRTPEVTCVVVDVSHEDPEVKFNWYVDGVEVHNAKTKPREEQYNSTYRVVSVLTVLHQDWLNGKEYKCKVSNKALPAPIEKTISKAKGQPREPQVYTLPPSREEMTKNQVSLTCLVKGFYPSDIAVEWESNGQPENNYKTTPPVLDSDGSFFLYSKLTVDKSRWQQGNVFSCSVMHEALHNHYTQKSLSLSPG light: not shown

Reference: patent US20230192860A1 (Bristol-Myers Squibb, published 2023)
